Data from the nanobody polyreactivity screen of Harvey et al. (2022).

Experiment: yeast display, Sf9 membrane polyspecificity reagent, FACS + sequencing; frameworks hold sequencing errors
Procedure, shortened: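 Nanobodies came from a synthetic yeast display library in Saccharomyces cerevisiae BJ5465, induced with galactose for 36–48 hours and stained for 1 hour at 4 °C with 10% biotinylated, detergent-solubilized Sf9 membrane reagent. Cells were enriched on streptavidin microbeads and then FACS-sorted, with low and high (top ~1%) gates set on anti-HA fluorescence for expression and streptavidin fluorescence for reagent binding. Each polyreactivity label reflects the gate a clone came from. Genes were amplified by colony PCR, sequenced by MiSeq 2 × 250 and filtered by CDR length.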

Sequence | polyreactivity (PSR sort gate)
QVQLVESGGGLVQAGGSLRLSCAASGSTFPYYAMGWYRQAPGKERELVARISYRGGRTYYADSVKGRFTISRDNAKNTVYLQMNSLKPEDTAVYYCAADRWVYYHSTRYDYWGQGTQVTVSS | high polyreactivity
QVQLVESGGGLVQAGGSLRLSCAASGSIFGPYAMGWYRQAPGKERYADSVKGRFTISRDNAKNTVYLQMNSLKPEDTAVYYCNADTSRWRYSQPIYDYWGQGTQVTVSS | low polyreactivity
QVQLVETGGGLVQAGGSLRLSCAASGFIGSNTMGWYRQAPGKERELVAAISWSGGSTYYADSVKGRFTISRDNAKNTVYLQMNSLKPEDSAVYYCAARRNSRARRTFGYWGQGTQVSVSS | high polyreactivity
QVQLVESGGGLVQAGGSLRLSCAASGSIFPQYAMGWYRQAPGKERELVAVISWSGGRTYYADSVKGRFTISRDNAKNTVYLQMNSLKPEDTAVYYCAAKYWYQRYAQSSYTRYYWGQGTQVTVSS | high polyreactivity
QVQLVESGGGLVQAGGSLRLSCAASGFTFVRYAMGWYRQAPGKERELVAAISRGGGRTSYADSVKGRFTISRDNAKNTVYLQMNSLKPEDTAVYYCATGTYAAAQGTRYYYLGQGTQVTVSS | high polyreactivity
QVQLVDSGGGLVQAGGSLRLSCAASGSTFYGYAMGWYRQAPGKERELVATISSSGAITYYADSVKWRFTISRDNAKNTVYLQMNRLKPEDPAVYYCARTGSLLSQVWYNYWGQGTQVTVSS | low polyreactivity
QVQLVESGGGLLQAGGSLRLSCAASGFTFHKNAMGWYRQAPGKERELVAAISRSGGRTYYADSVKGRFTISRDNAKNTVYLQMNSLKPEDTAVYYCNATPLLWAGYDYWGQGTQVTVSS | high polyreactivity
QVQLVESGGGLVQAGCSHSLSCAASGLTFDVYTMGWYRQAPGKERELVATISQTYYADSVKGRFTISRDNAKNTVYLQMNSLKPEDTAVYYCAANGFKAQYRDIVYDYGYWGEGTQVTVSS | low polyreactivity
QVQLVESGGGLVQAGGSLRLSCSASGSTFYYYAMGRYIQAPGKDRELVAAISSSGGTTYYADSVKGRFTISRDNAKNTVYLQMNSLKPEDTAVYYCAAQRYPSSLYQRFYYWGQGTQVTVSS | high polyreactivity
QVQLVESGGGLVQAGGSLRLSCAASGLTFGVYAMGWYRQAPGKERELVASIRSGGSTYYADSVKGRFTISRDNAKNTVYLQMNSLKPEDTAVYYCAKGTFDLHYRKRYNYWGQGTQVTVSS | low polyreactivity
QVQLVESGGGLVQAGGSLRLSCAASGSILESNVMGWYRQAPGKERELVASISSSGDSTYADSVKGRFTISRDNAKNTVYLQMNSLKPEDTAVYYCAADAPGADFDYWGQGTQVTVSS | low polyreactivity
QVQLVESGGGLVQAGGSLRLSCAASGLSSLRMLWDGLDRRLGKKGSWLPLITSGGDSTNYADSVKGRFTISRDNAKNTVYLQMNSLKPEDTAVYYCAADLDYPYGYWGQGTQVTVSS | low polyreactivity
QVQLVESGGGLVQAGGSLRLSCAASGSIFSYYAMGWYRQAPGKERELVAAITSGGSTYYADSVKGRFTISRDNAKNTVYLQMNSLKPEDTAVYYCAREKWPSQYDYWGQGTQVTVSS | low polyreactivity
QVHLVESGGGLVQAGGSLRISCAASGIIFYTYARGWYRQAPGKERELVAAISRSGGSTYYADSVKGRFTISRDNAKYTVYLQMNSRKPEDTAVDYCAADSTYRSTIQDYYWGQGTQVSVSS | high polyreactivity
KVQLVESGGGLVHAGGILRLISAASGSIFTYYYMGWYRQAPGKERELVAAISWNGGTTYYADSVKGRFTISRDNAKNTVYLQMNSLKPEDTAVYYCNKDGSYRYDYWGQGTQVTVSS | low polyreactivity
QVQLVESGGGLVQAGGSLRLSCAASGTTFGPNAMGWYRQAPGTERELVAAIRWRGGSTYYADSVQGRFTIARDNAKNTVYLQMNSLKPEDTAVYYCADTRYSWHNRVSRRHRYDYWGQGTQVTVSS | high polyreactivity
QVQLVESVGVLVKAGGSLRLSCAASGRIYSSYALGWYRQAPGKEREFVAYISNSGGSTYYADSVKGRFTISRDNAKNTVYLQMNILKPEDTAVYYCAAAVYSYTYRYYYWGQGTQLTVSS | high polyreactivity
QVQLVESGGGLVQAGGSLRISCDASGSIFELNAMGWYRQAPGKERELVAAISSGSTYYADSVKGRFTITRDNAKNTVYLQMNSLKPVDTAVYYCAKRWRRRFVDVWSLYDYWGQCTQVTVSS | low polyreactivity
QVQLVESGGGLVQAGGSLRLTCAASGSIFTAYTMGWYRQAPGKERDLVAAITERGGSTYYADSVKGRFTISRDNAKNTVYLQMNRMKPEDSAVYYCAASTLKDIYLWFRVDYWGQGTHVTVSS | low polyreactivity
QVQLVESGGGLVQAGGSLRLSCGGSGRIFYSNAMGWYRQAPGKERELFAAIRYSGVRTYYADSLKGRFTISLDNEKNTVYLQMNSLNPEYTEVYYCNVYSRTHYQTYTDDYWGQGTQVNVSS | high polyreactivity
QLQHVESGGGLVQAGGSLRLSCAASGSTFYRNAKGWSRQAPGKEREFVADITLGGGSTYYADSVKGRFTISRDHAKNTVYLQMKSLKPEDTAVYFCAVDYWQLNYDYWGQGTQVTVSS | low polyreactivity

Sequence | polyreactivity (PSR sort gate)
QVQLVESGGGLVQAGGSLRLSCAASGFTFAYYAMGWDRQAPGKERELVAAINWSGTRTSYADSVKGRFTISRDNAKNTVYLQMNSLKPEDTAVYYCAADSSLRYDYWGQGTQVTVSS | high polyreactivity
QVQLVESGGGLVQAGGSLRLSCAASGITLGYYAMGWYRQAPGKERELVAAISYRGGNTYYADSVKGRFTISRDNAKNTVYLQMNSLKPEDTAVYYCNADLGYESGWWSKYDYWGQGNQVTVSS | low polyreactivity
QVQLVESGGGLVQAGGSLRLSCAASGSIFTTNAMGWYRQAPEKERELVATITWSDGSTYYADSVKGRFTISRDNAKNTVYLQMNSLKPEDTAVYYCATPYKRYFYKGGDYWGQGTQVSVSS | low polyreactivity
QVQLVESGGGLVQAGGSLRLSCAASGLTFWRYAMGWYRQAPGKERELVAGISSSTGSTYYADSVKGRFTISRDNAKNTVYLQMNSLKPEDTAVYYCNAYVRRIVRSYYWGQGTQVTVSS | high polyreactivity
QVQLVESGGGLVQAGGSLRLSCAASGFTFRAYAMGWYRQAPGKERELVAAISTSGGSTYYADSVKGRFTISRDNAKNTVYLQMNSLKPEDTSVYYCAKRGLQGYWSPYNYWGQGTQVTVSS | high polyreactivity
QVQLVESGGGVQAGCSLRLSCAASGRTFVPYGMGWYRQAPGKERELVAAISSIGDSTSYADSVKGRFTISRDNAKNTVYLQMNSLKPEDSAVYYCADVTWYDEYDSWGKGTQVTVSS | low polyreactivity
QDQHVESGGGLVQAGGSLRLSCAASGSTFAWYSMGWYRQAPGKERELVASITSTGSTNYADSVKGRYTISRDNAKNTVYLQMNSLKPVDTAVYYCAAAVRAWYLRLYDYWGQGTQVTVSS | high polyreactivity
QVQLVESGGCLVQAGGSLRLSCAASGRTFPLYAMGWYRQAPGKERELVASITNGGNTNYADSVKGRFTISRDNEKNTVYLQMNSLKPEDTAVYYCAAQTFGYGFGGGDYWGQGTQVTVSS | low polyreactivity
QVQLVESGGGLLQAGGSLRLSCAASGSTFQWYAMGWYRQAPGKERELVAGITRTGSTYYADSVKGRFTISRDNAKNTVYLQMNSLKPEDTAVYYCAAKWHTASGKYYYWGQGTQVTVSS | high polyreactivity
QVQLQEGGGLVQAGGSLRLSCAASGYISSRPAMGWYRQAPGKERAFVATIADGTSTYYADSVKGRFTISRDNAINTVYLQMNSLKPEDTSVYYWAAAYNTEFDLSYWGQGTQVTVSS | high polyreactivity
QVQLVESGGGLVQAGGSLRLSCAASGRTFTYNVMGWYRQAPGKERELVAAISSGGGTISADSVKGRFTISRDNAKHTVYLQMNSLKPEDTAVYYCAAKYAWRLLEMYYWGQGTQVTVSS | low polyreactivity
QVQLVESGGGLVQAGGSLRLSCAASGIIFYYYTMGWYRQAPGKERELVASISRDGGSTHYADSVKGRFTISRDNAKNTVYLLMNSLKPEDTAVYYCAARDPTGSSYAFYRRKVYYWGQGTQVTVSS | high polyreactivity
QVQLVESGGGLVQAGGSLRLSCAASGFTFSQYAMGWYRQAPGKERELVAAINSRGGSTYYADSVKGRFTISRDNAKNTVYLQINSLKPEDTAVYYCNAVISGYPYEYDYWGQGTQVTVSS | high polyreactivity
QVQLVESGGGLVQAGGSLRLSCAASGLTFSYYVMGWYRQAPGKVRELVAAISSGGSTNYADSVKGRFTMSRDNAKNTVYLQLNSLKPEDTAVYYCAARNARADKQCTRWRNYWGQGTQVTVSS | low polyreactivity
QVQLVESGGGLVQAGGSLRLSCAASGSIFWVYAMGWYRQAPGKERELVAAISNSGSTNYADSVKGRFTISRDNAKNTVYLQMNSLKPEDTAVYYCAKDSLVDHVGGYDYWGQGTQVTVSS | low polyreactivity
QVQLVESGGGLVQAGGSLRLSCAASGRIIRTYSMGRYRQAPGKERELVAVISRRGGRTYYADSVKGRFTFSRDNAKNTVYVQINSLKPEDTAVYYCNADYSGGGGGYWGQGTLVTVSS | high polyreactivity
QVQLVESGGGLFQAGGSLRLSCAASGYIFVRYAMGWYRQAPGKEREFVAAISSSGGSTRYADSVKGRFTISRDKAKYNVYLQMNSLKPEDTAVYYCAATRVARDGSPMYYWGQGTQVTVSS | high polyreactivity
QVQLVESGGGLVQAGGSLRLSCAASGRIFAYNTMGWYRQAPGKEREMVAVITSGGSTNYADSVKGRFTISRDNAKITVYLQMNSLKPEDTAVYYCAKRPYGRSGGSRYDYWGHGTQVTVSS | high polyreactivity
QVQLVESGGGLVQAGGSLRLSCAASGRILYYYAMGWYRQAPGKERELVAAITWGGGSTYYADSVKGRFTISRDNAKKSVYLQMNSLTPEETAVYYCNRTFRSRLPTSRGYEYWGQGTQVTVSS | low polyreactivity
QVQLVESGGGLVQAGGSLRLSCAASGRIFKYYVMGWYRQPPGKERELVAGISSSGGSTYYADSVKGRFTISRDNAKNTVYLQMNSLKPEDTAVYYCAADYTFAYYNVKMDYWGQGTQVTVSS | low polyreactivity
